Experimental data reported in patent US20250313621A1 (NXERA PHARMA UK, published 2025).

Experiments:
[1] = molecular target: T1, PAR2-3: P157: 1-377, glycosylated, pBacMamHisStrepII, full length (human, UniProt P55085 26-377); experiment: SPR Biacore; IgG captured on anti-human IgG, 100 nM PAR2 analyte; 1:1 model
T1 construct: detergent-solubilised analyte in SPR, or on infected cells in flow cytometry; also called FL-N PAR2 StaR; FL-N StaR; not shown: C-terminal StrepII and deca-histidine tags
T1 sequence: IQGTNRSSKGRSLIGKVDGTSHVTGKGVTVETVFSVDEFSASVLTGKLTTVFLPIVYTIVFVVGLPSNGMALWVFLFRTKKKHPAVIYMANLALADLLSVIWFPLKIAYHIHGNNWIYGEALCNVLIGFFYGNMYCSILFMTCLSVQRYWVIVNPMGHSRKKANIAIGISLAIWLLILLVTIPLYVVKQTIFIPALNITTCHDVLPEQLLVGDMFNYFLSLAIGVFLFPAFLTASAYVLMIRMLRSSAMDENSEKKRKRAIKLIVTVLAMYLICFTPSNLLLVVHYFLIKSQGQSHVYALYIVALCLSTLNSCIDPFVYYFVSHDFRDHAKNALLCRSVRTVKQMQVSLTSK
Procedure: The antibodies were captured on anti-human IgG chip surface followed by injection of 100 nM PAR2. The data were fitted to 1:1 interaction model except for clone ‘Y021160’ in which case heterogeneous ligand model was used and component with slow dissociation was used for comparison.
For three purified IgG1f_AEASS clones Y021171, Y022054 and Y022063 affinities to human PAR2-3 variant (P157: 1-377, glycosylated, pBacMamHisStrepII, full length) were determined by SPR immobilizing the IgG and probing with detergent (LMNG/CHS) solubilized FL-N PAR2 StaR. Affinities were 22 nM and 20 nM for Y022063 and Y021171, respectively.

[2] = molecular target: T2, Wildtype human PAR2 expressed on cells (human, UniProt P55085 37-397); experiment: cell-based or functional assay
T2 sequence: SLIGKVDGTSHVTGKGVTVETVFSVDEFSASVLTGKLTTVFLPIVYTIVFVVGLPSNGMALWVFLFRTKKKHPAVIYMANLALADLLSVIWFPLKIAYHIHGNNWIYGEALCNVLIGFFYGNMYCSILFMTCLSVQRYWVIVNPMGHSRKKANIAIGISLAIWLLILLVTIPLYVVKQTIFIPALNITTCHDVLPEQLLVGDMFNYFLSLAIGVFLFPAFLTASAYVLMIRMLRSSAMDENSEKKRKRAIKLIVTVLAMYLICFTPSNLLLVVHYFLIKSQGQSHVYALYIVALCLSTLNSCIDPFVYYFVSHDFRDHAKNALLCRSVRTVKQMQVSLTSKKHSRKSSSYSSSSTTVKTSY

[3] = molecular target: T3, Human PAR2 StaR incorporated into nanodiscs (construct not stated) (human, UniProt P55085 37-377, limits assumed); experiment: SPR Biacore; human PAR2 StaR incorporated into nanodiscs
T3 construct: also called nanodisc-embedded StaR
T3 sequence: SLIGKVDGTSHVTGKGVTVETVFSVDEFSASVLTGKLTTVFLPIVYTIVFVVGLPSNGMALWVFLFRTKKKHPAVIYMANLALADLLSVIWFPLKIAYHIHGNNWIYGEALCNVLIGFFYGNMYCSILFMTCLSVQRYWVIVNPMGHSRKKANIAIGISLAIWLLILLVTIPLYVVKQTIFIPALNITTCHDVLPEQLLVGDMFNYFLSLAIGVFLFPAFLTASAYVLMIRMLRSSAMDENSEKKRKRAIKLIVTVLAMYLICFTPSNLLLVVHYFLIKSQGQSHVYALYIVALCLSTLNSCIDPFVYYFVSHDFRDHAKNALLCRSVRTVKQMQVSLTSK

[4] = molecular target: T2, Wildtype human PAR2 expressed on cells; experiment: cell-based or functional assay; remark: listed apart in the source
[5] = molecular target: T1, PAR2-3: P157: 1-377, glycosylated, …; experiment: SPR Biacore T200; IgG captured on anti-human IgG, 250 nM PAR2 analyte; 1:1 model
Procedure: The assay of PAR2 interaction with anti-PAR2 antibodies was carried out using a Biacore T200 instrument (GE Healthcare). Anti-human IgG antibody (Human Antibody Capture Kit, GE Healthcare) was immobilised by amine coupling on a sensor chip CM3 (GE Healthcare) to a surface density of 3500 to 4500 resonance units (RU). Immobilisation was carried out at 25° C. in HBS-EP+ buffer (GE Healthcare). The buffer was then changed to 50 mM HEPES, pH 7.5, 150 mM NaCl, 0.02% LMNG, 0.002% CHS. Each cycle of the PAR2-antibody interaction assay consisted of antibody capture (100 nM antibody injected for 2 min at a flow rate of 5 μL/min), PAR2 injection (blank or 250 nM, with contact and dissociation times of 2 and 3 minutes, respectively, at a flow rate of 20 μl/minute), and chip surface regeneration (30 seconds at 20 μl/minute) using the regeneration solution from Human Antibody Capture Kit (GE Healthcare). […] Measurements between each experimental data set were within the acceptable margins for this methodology.
The antibodies were captured on anti-human IgG chip surface followed by injection of 250 nM PAR2. The data were fitted to 1:1 interaction model.

[6] = molecular target: T2, Wildtype human PAR2 expressed on cells; experiment: cell-based or functional assay; remark: listed apart in the source
[7] = molecular target: T4, Mouse PAR2 on Flp-In CHO cells (mouse, UniProt P55086 39-399); experiment: cell binding, flow cytometry/IntelliCyt
T4 construct: whole, on cells
T4 sequence (looked up): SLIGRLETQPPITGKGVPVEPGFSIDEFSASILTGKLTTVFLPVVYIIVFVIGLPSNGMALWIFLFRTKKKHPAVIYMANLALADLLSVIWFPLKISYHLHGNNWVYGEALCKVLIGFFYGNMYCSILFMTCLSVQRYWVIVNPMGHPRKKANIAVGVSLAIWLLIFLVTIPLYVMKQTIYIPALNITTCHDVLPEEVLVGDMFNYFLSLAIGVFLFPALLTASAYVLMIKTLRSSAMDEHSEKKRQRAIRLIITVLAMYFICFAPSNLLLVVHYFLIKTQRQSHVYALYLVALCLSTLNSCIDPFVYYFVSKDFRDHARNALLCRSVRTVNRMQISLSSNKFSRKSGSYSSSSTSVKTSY

[8] = molecular target: T5, Cynomolgus PAR2 on BacMam-infected HEK293 cells (cynomolgus); experiment: flow cytometry on HEK293F-cynoPAR2 (3.0E+06 cells/mL, w/ NaN3), overnight at about 5 C, S/BG [continued]
T5 construct: whole, on cells; also called cyno PAR-2; Cyno PAR2

[9] = molecular target: T2, Wildtype human PAR2 expressed on cells; experiment: flow cytometry on HEK293F-humanPAR2 (3.0E+06 cells/mL), S/BG [continued]

B1: Y021171 (antibody, V domains shown)
VH: EVQLVESGGGLVKPGGSLRLSCAASGFTFSSYSINWVRQAPGKGLEWVSSISSSSSYTYYAESVKGRFTISRDNAKNSLYLQMNSLRAEDTAVYYCARAASGFAIFDYWGQGTLVTVSS
VL: DIQMTQSPSSVSASVGDRVTITCRASQGISSWLAWYQQKPGKAPKLLIYAASSLQSGVPSRFSGSGSGTDFTLTISSLQPEDFATYYCQQTHYVPLTFGQGTKVEIKR
Kd [1]: 70 nM
koff [1]: 0.029 s⁻¹
kon [1]: 410000 M⁻¹ s⁻¹
% Max Inhibition AP, IP-One [2]: 32%
Kd [3]: 31 nM
koff [3]: 0.037 s⁻¹
kon [3]: 1.2e+06 M⁻¹ s⁻¹
% Max Inhibition, Bovine Trypsin challenge, IP-One [4]: 19%
Kd [5]: 20 nM
koff [5]: 0.011 s⁻¹
kon [5]: 530000 M⁻¹ s⁻¹
% Max Inhibition, AP challenge, IP-One [6]: 163%
binding result [7]: no binding

B2: Fab Y022870 (Fab, V domains shown)
VH: EVQLLESGGGLVQPGGSLRLSCAASGFSFSRYAITWVRQAPGKGLEWVSTISALGLETYYAESVRGRFTISRDNSKNTLYLQMNSLRAEDTAVYYCARGFHYTHSGKRYYYPFDIWGQGTLVTVSS
VL: QSALTQPASVSGSPGQSITISCTGTSSDVGSYNLVSWYQQHPGKAPKLMIYEGSKRPSGVSNRFSGSKSGNTASLTISGLQAEDEADYYCSQYATFIAFAVFGGGTKLTVLG
EC50 (read off the curve) [8]: ~2 nM

B3: Fab Y022877 (Fab, V domains shown)
VH: EVQLLESGGGLVQPGGSLRLSCAASGFTFSRYAMTWVRQAPGKGLEWVSTISGLGQEAYYAGSVKGRFTISRDNSKNTLYLQMNSLRAEDTAVYYCARGFHYTHSGKRYYYPFDIWGQGTLVTVSS
VL: QSALTQPASVSGSPGQSITISCTGTSSDVGSYNLVSWYQQHPGKAPKLMIYEGSKRPSGVSNRFSGSKSGNTASLTISGLQAEDEADYYCSQYATFIAFAVFGGGTKLTVLG
EC50 (read off the curve) [9]: ~10 nM

B4: Fab Y022883 (Fab, V domains shown)
VH: EVQLLESGGGLVQPGGSLRLSCAASGFSFTRYAISWVRQAPGKGLEWVSVISGHGSEANYAESVKGRFTISRDNSKNTLYLQMNSLRAEDTAVYYCARGFHYTHSGKRYYYPFDIWGQGTLVTVSS
VL: QSALTQPASVSGSPGQSITISCTGTSSDVGSYNLVSWYQQHPGKAPKLMIYEGSKRPSGVSNRFSGSKSGNTASLTISGLQAEDEADYYCSQYATFIAFAVFGGGTKLTVLG
EC50 (read off the curve) [8]: ~4 nM
